# B1: CsgG_(16-277) (domain or fragment)
# chain: CLTAPPKEAARPTLMPRAQSYKDLTHLPAPTGKIFVSVYNIQDETGQFKPYPASNFSTAVPQSATAMLVTALKDSRWFIPLERQGLQNLLNERKIIRAAQENGTVAINNRIPLQSLTAANIMVEGSIIGYESNVKSGGVGARYFGIGADTQYQLDQIAVNLRVVNVSTGEILSSVNTSKTILSYEVQAGVFRFIDYQRLLEGEVGYTSNEPVMLCLMSAIETGVIFLINDGIDRGLWDLQNKAERQNDILVKYRHMSVPPES
# Target: the molecule itself
# Experiment: SEC
protein,measurement,value
B1,stoichiometry N,8 protomers

# Reference: publication PMC3173608 (Structure(London, England:1993), 2011)
